Measurements from patent US20260265360A1, “USE OF ANTI-FAM19A5 ANTAGONISTS FOR TREATING HEARING DISORDERS” (NEURACLE SCIENCE CO., LTD., priority 2023, published 2026).

Assays:
human FAM19A5 = human FAM19A5 (Homo sapiens, UniProt Q7Z5A7); assay: HDX-MS epitope mapping; format: binding; settings: HDX-MS deuterium uptake heat map; residues of SEQ ID NO: 304
Experimental: Hydrogen/deuterium exchange mass spectrometry (HDX-MS) was utilized as described below to probe the binding epitope of human FAM19A5 for the clone 2-13 anti-FAM19A5 antibody.
Prior to epitope mapping experiments, non-deuteriated experiments were carried out to generate a list of common peptides for FAM19A5 protein. Off-line and on-line pepsin digestion were used to digest the FAM19A5 protein. Houde, D., et al., Methods Mol Biol 988:269-89 (2013). With on-line digestion, pepsin immobilized column was used (~20° C.) and the efficiency of the reaction was regulated by adjusting the flow rate. With the off-line method, FAM19A5 protein was digested manually with pepsin at 4° C. for 5 minutes, and then, the mixture was loaded to liquid chromatography column for analysis. To identify the condition for maximal protein coverage, one or more of the following parameters were adjusted: potassium phosphate, sodium phosphate, quench holding time, reducing reagent (TCEP), urea concentration, and pepsin concentration. The Waters PLGS software was used to analyze the raw mass spectrometry (MS) data generated to determine whether maximal protein coverage was obtained. To confirm the reproducibility of the experiments, each of the experimental conditions were repeated at least twice, and peptides that were generated were confirmed. […]

[1] = tested on: human FAM19A5 protein epitope fragments F1-F6; assay: Epitope mapping: binding to BSA-conjugated FAM19A5 epitope fragments F1-F6 (Western blot / ELISA); settings: ELISA
Experimental: Overlapping peptide fragments (F1-F6 epitope fragments; SEQ ID NOs: 178-183) of the human FAM19A5 protein were synthesized and conjugated to BSA (SEQ ID NOs: 322-327). Binding of the different anti-FAM19A5 antibodies to the BSA-conjugated peptide fragments F1-F6 was determined by Western blot analysis or ELISA assay. For the Western blot analysis, BSA-conjugated FAM19A5 fragments F1-F6 were separated by SDS polyacrylamide gel electrophoresis and transferred to a nitrocellulose membrane by the standard procedure. The membrane was incubated with the anti-FAM19A5 antibody (e.g., 1-65, […], 1-65-scFv-rabbit Fc-SSS), and the antigen-antibody complexes were detected with the appropriate secondary antibody conjugated with horse-radish peroxidase (anti-rabbit IgG (Fc specific)-HRP, 1:4000 dilution). For the ELISA assay, the following protocol was used. FAM19A5 fragment F1-F6 (diluted to 1 μg/mL in 50 mM carbonate buffer (Biosesang) or to 20 μg/mL for high concentration analysis) were used to coat the wells of 96-well immuno plates (Thermo Scientific) (100 μL/well) overnight at 4° C. and then subsequently washed twice in 1×PBS. The plates were then blocked with the blocking buffer (100 μL/well) for 1 hour at room temperature. During the 1-hour incubation, the relavant anti-FAM19A5 antibodies were diluted to 1 μg/mL (or 20 μg/mL for high concentration analysis) in the diluent buffer. Once the plates were washed (2× using 1×PBS), the diluted anti-FAM19A5 antibodies were added to the appropriate wells, and the plates were incubated at room temperature for 1 hour. The plates were subsequently washed for a total of five times using the washing buffer. Next, the ODP substrate (prepared by dissolving one ODP tablet (O-phenylenediamine Dihydrochloride, Thermo) into 9 mL of sterilized deionized water and 1 mL of 10× stable Peroxide Stable buffer (Theromo)) was added to each of the wells, and the color change reaction was allowed to occur for 10 minutes. This reaction was stopped by adding 100 μL of 2N H2SO4 (Daejung) to the wells. The absorption value of each of the wells was detected at 492 nm using a 96-well microplate reader (Molecular Device).

Chain of human FAM19A5 (Q7Z5A7 26-125 isoform Q7Z5A7-2 limits assumed): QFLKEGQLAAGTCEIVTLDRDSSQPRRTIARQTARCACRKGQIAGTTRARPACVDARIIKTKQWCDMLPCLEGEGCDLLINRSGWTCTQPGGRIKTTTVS

B1: 2-13: anti-FAM19A5 antibody; VH SEQ ID NO: 35, VL SEQ ID NO: 39 (antibody, V domains shown)
VH: AVTLDESGGGLQTPGGALSLVCKASGFTFSSHGMFWVRQTPGKGLEYVAEITNDGSGTNYGSAVKGRATISRDNGQSTVRLQLNNLRAEDTGTYFCARSTYECPGGFSCWGDTGQIDAWGHGTEVIVSS
VL: ALTQPSSVSANPGETVKITCSGGSYSYGWFQQKSPGSALVTVIYWDDERPSDIPSRFSGALSGSTNTLTITGVQADDEAVYFCGTEDISGTAGVFGAGTTLTVL
modifications: 2-13 VH; 2-13 VL
amino acid residues identified as important binding residues (human FAM19A5): 38-50 ([…]; i.e., SEQ ID NO: 199) and 51-64 ([…]; i.e., SEQ ID NO: 200)
binding to any of the epitope fragments F1-F6 [1]: did not appear to bind
